Reference: patent publication US20020146797

Test system: RR-Src peptide

GST-XD4(V323A, I338A)
KM (mM) for protein substrate RR-Src, ATP saturated: 3.1 mM | KM (mM) for protein substrate RR-Src, N^6-(cyclopentyl)ATP saturated: 2.1 mM

GST-XD4 (glutathione S-transferase fusion of the XD4 fragment of v-Src, wild-type catalytic domain)
KM (mM) for protein substrate RR-Src, ATP saturated: 2.6 mM
